# Measured values as given in article PMC5830076.
# Target: ARΔ423-448 (Flag-AR with residues 423 to 448 removed) (human) (UniProt P10275)
# Test: proximity ligation
substance,measurement,value
Myc-RAP74-CTD (from UniProt P35269 450-517) (domain or fragment),reduction of the interaction against WT AR (PLA),40%
